Results from PMC10355216, “The C-terminal tail of CSNAP attenuates the CSN complex” (Life Science Alliance, 2023).

Key:
Test in all cases: peptide or protein array; peptides synthesized on a microarray, incubated with recombinant CSN, probed with anti-CSN3 and HRP-conjugated secondary antibody; spot intensity normalized to C-CSNAP (A1), averaged from six arrays
[1] = biological target: C-CSNAP peptide with a D-amino acid at Asp55 (peptide array)
[2] = biological target: C-CSNAP peptide with a D-amino acid at Asp52 (peptide array)
[3] = biological target: C-CSNAP peptide with a D-amino acid at Asp54 (peptide array)
[4] = biological target: C-CSNAP peptide with a D-amino acid at Phe51 (peptide array)
[5] = biological target: C-CSNAP peptide with a D-amino acid at Leu50 (peptide array)
[6] = biological target: C-CSNAP peptide with a D-amino acid at Asp53 (peptide array)

increase of the array signal over the original 16AA C-CSNAP peptide [1]: > 20%
increase of the array signal over the original 16AA C-CSNAP peptide [2]: > 20%
increase of the array signal over the original 16AA C-CSNAP peptide [3]: > 20%
increase of the array signal over the original 16AA C-CSNAP peptide [4]: > 20%
increase of the array signal over the original 16AA C-CSNAP peptide [5]: > 20%
increase of the array signal over the original 16AA C-CSNAP peptide [6]: > 20%
Substance: recombinant COP9 signalosome complex (CSN) (from UniProt Q13098 1-491; Q9UNS2 1-423; Q92905 1-334; Q99627 2-209; Q8WXC6 1-57)
